The text below walks through data of publication PMC5500548, “Facile Control over the Supramolecular Ordering of Self-assembled Peptide Scaffolds by Simultaneous Assembly with a Polysacharride” (Scientific Reports, 2017).

No end group written: not given here. *: point of attachment. Fmoc = O=C(OCC1c2ccccc2-c2ccccc21)*

This data set deals with the molecule itself. Nature of the data set: transmission electron microscopy + atomic force microscopy; hydrogel of 10 mg/mL Fmoc-FRGDF formed by pH switch to pH 7.4, PBS; dried, negatively stained (TEM) or on HOPG (AFM).

B1: Fmoc-FRGDF (peptide)
peptide: Fmoc-FRGDF
notes: the Fmoc group is kept on the N-terminus; Low molecular weight gelator; also called Fluorenylmethoxycarbonyl (Fmoc) pentapeptide; SAP; source: synthetic peptide (solid phase Fmoc peptide synthesis)
With B1, the binding result is on record as “binds”.
